From patent US10088479B2, “Biomarker and uses thereof” (ISIS INNOVATION LIMITED, priority 2014, dated 2018)

How the values were obtained:
serum from RA patients = assay: Western blot of citrullinated tenascin-C probed with serum from RA patients or healthy controls; assay type: binding, human; conditions: sera from RA patients or normal healthy controls
Experimental: 33.33 ul of citrullination reaction (cit-TNC alone or cit-TNC combined with cit-FBG) was loaded into NuPAGE® Novex 4-12% Bis-tris gel using a 1.0 mm 2D single lane well.
After electrophoresis proteins were transferred to nitrocellulose and the membrane blocked and then cut into strips (up to 8 strips ˜0.7 cm wide). Strips were incubated with serum from RA patients or normal healthy individuals diluted 1:100 in 5% milk TBS-tween. Strips were incubated in 15 ml falcon tubes on rollers 1 h room temperature, then washed 3×5 min, 1×15 min in tubes with TBS-Tween. Strips were then incubated with secondary mouse anti-human Ig 1:5000 1 h in room temperature, then washed 3×5 min, 1×15 min in the dish with TBS-tween. Strips were finally incubated with ECL reagents and exposed to film.

[1] = tested on: primary human macrophages; assay: Cytokine synthesis (ELISA) in primary human macrophages stimulated with tenascin-C or its domains; assay type: cell-based; conditions: 24 h
Experimental: Human monocytes were isolated from peripheral blood (London Blood Bank) and macrophages were derived from monocytes after differentiation for 4 days with 100 ng/ml of M-CSF as previously described (Foxwell (1998)).
(§1) Immediately after isolation, RA membrane cells and macrophages were cultured at 1×10^5 cells/well in RPMI 1640 containing 10% (v/v) FBS and 100 U/ml (Units/ml) penicillin/streptomycin in 96-well tissue culture plates for 24 hours before stimulation. Synovial fibroblasts (used only at either passage number 2 or 3) were cultured at 1×10^4 cells/well in DMEM containing 10% (v/v) FBS and 100 U/ml penicillin/streptomycin in 96-well tissue culture plates for 24 hours before stimulation.
Cells were incubated for 24 hours at 37° C. with the indicated doses of tenascin-C and recombinant tenascin-C fragments (1.0 μM-1.0 nM). […]
(§2) Supernatants were subsequently examined for the presence of the cytokines TNF-α, IL-6, and IL-8 by enzyme-linked immunosorbent assay (ELISA) according to the manufacturer's instructions. Absorbance was read on a spectrophotometric ELISA plate reader (Labsystems Multiscan Biochromic, Vantaa, Finland) and analyzed using the Ascent software program (Thermo Labsystems, Altrincham, UK).

RA synovial fibroblasts = assay: Cytokine synthesis (ELISA) in RA synovial fibroblasts stimulated with tenascin-C, FBG or LPS; assay type: cell-based, human; conditions: 24 h; for cytokine synthesis (IL-6, IL-8) in synovial fibroblasts: LPS 10 ng/ml
Source text: (§3) RA membrane cells (representing a mixed population of all synovial cell types) were to isolated from synovial membranes obtained from patients undergoing joint replacement surgery as previously described (Brennan (1989)). RA synovial fibroblasts were isolated from the mixed population of RA membrane cells as previously described (Brennan (1989)). The study was approved by the local Trust ethics committee (Riverside NHS Research Committee), and waste tissue (synovium after joint replacement surgery) was obtained only after receiving signed informed consent from the patient and anonymyzing the tissue to protect patient identity.
as §1
(§4) Cells were incubated for 24 hours at 37° C. with the indicated doses of tenascin-C and recombinant tenascin-C fragments (1.0 μM-1.0 nM). Cells were also stimulated where indicated with LPS (1 ng/ml for human macrophages, 10 ng/ml for human fibroblasts, RA membrane cells and HEKs, 100 ng/ml for MEFS and BMDMs and 10 ng/ml for HEKS), PAM3 (10 ng/ml for human macrophages, human fibroblasts, and HEKs, 100 ng/ml for MEFs and BMDMs), murine IL-1 (5 ng/ml for MEFS) and murine TNF-α (100 ng/ml for MEFS). Unless specifically stated otherwise rough LPS was used for in vitro studies.
as §2

[2] = tested on: embryonic fibroblasts or macrophages; assay: Cytokine synthesis in embryonic fibroblasts or macrophages from MyD88, TLR2 or TLR4 deficient mice; assay type: cell-based; conditions: FBG 1 μM, 24 h
Experimental: MEFs express high levels of mRNA of all 9 murine TLRs and are specifically and highly responsive to TLR ligand activation. […] MEFs were isolated from d13 embryos harvested from age-matched, pregnant female wild type, TLR2, TLR4 and null mice (as described in Todaro (1963)). Fibroblasts were cultured at 2×10^4 cells/well in DMEM containing 10% (v/v) FBS and 100 U/ml penicillin/streptomycin in 96-well tissue culture plates for 24 hours before stimulation.
BMDMs were derived by aspirating the femurs of age matched female wild type, TLR2 and TLR4 null mice as described in Butler (1999)) and culturing the cells for 7 days in DMEM, 20% (v/v) FBS, 10 ml/L (v/v) antibiotic-antimycotic solution PSA, 50 μM β-Mercaptoethanol and 10 ng/ml M-CSF. Macrophages were then cultured at 1×10^5 cells/well in DMEM, 20% (v/v) FBS, 10 ml/L (v/v) antibiotic-antimycotic solution PSA, 50 μM β-Mercaptoethanol in 96-well tissue culture plates for 24 hours before stimulation.
as §4, §2

[3] = tested on: human dermal fibroblasts (HDF); assay: Cell adhesion to coated FBG, crystal violet; assay type: cell-based; conditions: coated wells, 45 minutes
Experimental: (§5) (A) The sequence identified to bind integrin αvβ3 is shown in white (Yokoyama et al., 2000). Within this sequence two Arginines (shown in black) were identified to be citrullinated. (B) Wells of a 96 well plate were coated with different concentrations of FBG, citrullinated FBG (cFBG), FBG incubated in buffer without Calcium (FBG —Ca^2+), or FBG incubated without PAD (FBG —PAD). As a positive control wells were coated with Fibronectin (FN) (1 ug/ml), and coating with BSA (10 mg/ml) served as negative control. Plates were incubated with human dermal fibroblasts (HDF) or synovial fibroblasts from RA patients (RAF) for 45 minutes and adhesion was measured by determining absorbance of attached cells after staining with crystal violet (0.1%). Data are shown as the mean of at least four independent experiments+s.e.m., *=p<0.05, **=p<0.01.

[4] = tested on: synovial membranes from RA patients; assay: Cytokine synthesis in RA synovial membrane cells stimulated with FBG; assay type: cell-based, human; conditions: FBG 1.0-0.01 μM, 24 h
Source text: as §3
Immediately after isolation, RA membrane cells and macrophages were cultured at 1×10^5 cells/well in RPMI 1640 containing 10% (v/v) FBS and 100 U/ml (Units/ml) penicillin/streptomycin in 96-well tissue culture plates for 24 hours before stimulation. […]
as §2

[5] = tested on: synovial fibroblasts from RA joints (RAF); assay: Cell adhesion to coated FBG, crystal violet; assay type: cell-based, human; conditions: coated wells, 45 minutes
Experimental: as §5

knee joint = assay: Intra-articular injection of FBG into mouse knee joint, histology; assay type: in vivo, mice; conditions: for joint inflammation, histology: wild type mice
Experimental: Wild type mice were anesthetized by intraperitoneal injection of 150 μl of Hypnorm diluted 1:10 in sterile water and then injected with 100 ng, 1 or 3 μg FBG in 10 μl of sterile PBS into the right knee joint using a sterile 33-gauge microcannula. Control mice received an injection of 10 μl PBS alone or were not injected.
On days 3 and 7, mice were euthanized, the knee joints were excised and fixed in 10% (volume/volume) buffered formalin, decalcified, with 10% EDTA and processed to paraffin.
Coronal tissue sections (4 μm) were cut at 7 depths throughout the joint; 80 μm apart and stained with hematoxylin and eosin or Safranin-O to assess joint pathology. Histopathologic changes were scored using the following parameters as described in Van Lent (2006).
Inflammation (the influx of inflammatory cells into synovium (infiltrate) and the joint cavity (exudates), was graded using an arbitrary scale from 0 (no inflammation) to 3 (severe inflammation). Chondrocyte death was determined as the percentage of cartilage area containing empty lacunae in relation to the total area. Cartilage surface erosion was determined as the amount of cartilage lost in relation to the total cartilage area. Bone destruction was determined in 10 different areas of the total knee joint section. Destruction was graded on a scale of 0 (no damage) to 3 (complete loss of bone structure). Histological analysis was performed by an investigator who was blinded to the experimental groups. The mean score for each animal in an experimental group was calculated by averaging the histopathologic scores in at least 5 section depths per joint.

tenascin-C: purified recombinant full-length human tenascin-C, native (non-citrullinated)
reactivity with sera in blots (serum from RA patients): No reactivity
production of TNF-α, IL-6 and IL-8 ([1]; human macrophages): dose dependently stimulated
TNF-α synthesis in fibroblasts (RA synovial fibroblasts): Neither LPS nor tenascin-C induced TNF-α synthesis
cytokine synthesis (IL-6, IL-8) in synovial fibroblasts (RA synovial fibroblasts): only induced IL-6 synthesis

B1: FBG: recombinant fibrinogen-like globe domain of human tenascin-C (protein)
chain: GLLYPFPKDCSQAMLNGDTTSGLYTIYLNGDKAEALEVFCDMTSDGGGWIVFLRRKNGRENFYQNWKAYAAGFGDRREEFWLGLDNLNKITAQGQYELRVDLRDHGETAFAVYDKFSVGDAKTRYKLKVEGYSGTAGDSMAYHNGRSFSTFDKDTDSAITNCALSYKGAFWYRNCHRVNLMGRYGDNNHSQGVNWFHWKGHEHSIQFAEMKLRPSNFRNLEGRRKRA
modifications: left off: small tags and cut ends
notes: recombinant fibrinogen-like globe domain of human tenascin-C
cytokine synthesis in MyD88 deficient embryonic fibroblasts ([2]; MyD88 -/-): does not stimulate cytokine synthesis
cytokine synthesis in TLR2 deficient embryonic fibroblasts or macrophages ([2]; TLR2 -/-): unaffected
cytokine synthesis in TLR4 deficient embryonic fibroblasts or macrophages ([2]; TLR4 -/-): does not stimulate cytokine synthesis
adhesion of HDF [3]: proadhesive
synthesis of IL-6, IL-8 and TNF-α in RA synovial membranes [4]: further enhanced synthesis of all these cytokines
adhesion of RAF [5]: proadhesive
TNF-α synthesis in human macrophages ([1]; 1.0 μM tenascin-C domains): stimulated
cytokine synthesis (IL-6, IL-8) in synovial fibroblasts (RA synovial fibroblasts): did not induce IL-8 synthesis
joint inflammation (knee joint; TLR2 null mice, 1 μg FBG intra-articular, 3 days): able to induce joint inflammation
joint inflammation, histology (knee joint; 100 ng FBG intra-articular): No inflammation or proteoglycan loss
joint inflammation, histology (knee joint; 1 μg FBG intra-articular, 3 days): inflammatory cell infiltration (FIG. 6f), mild synovitis, pannus formation (FIG. 6g) and proteoglycan loss (FIG. 6h)
joint inflammation, histology (knee joint; 3 μg FBG intra-articular): A similar response
